From US20230235058A1 (OXFORD UNIVERSITY INNOVATION, published 2023)

T1: human FcγR2A 131R (human, UniProt P12318 34-217)
T1 construct: extracellular domain
T1 sequence (looked up): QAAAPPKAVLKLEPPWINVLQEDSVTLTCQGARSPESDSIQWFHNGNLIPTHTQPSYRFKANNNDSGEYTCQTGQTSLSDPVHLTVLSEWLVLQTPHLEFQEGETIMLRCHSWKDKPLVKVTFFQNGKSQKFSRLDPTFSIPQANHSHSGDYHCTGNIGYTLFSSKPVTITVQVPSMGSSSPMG

T2: human FcγR2A 131H (human, UniProt P12318 34-217)
T2 construct: extracellular domain
T2 sequence (looked up): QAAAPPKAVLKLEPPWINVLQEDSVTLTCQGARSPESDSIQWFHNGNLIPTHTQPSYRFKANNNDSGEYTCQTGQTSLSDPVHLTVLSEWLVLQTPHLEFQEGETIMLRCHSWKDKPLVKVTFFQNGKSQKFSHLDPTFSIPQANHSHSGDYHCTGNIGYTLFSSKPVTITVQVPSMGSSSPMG

T3: human FcγR2B (human, UniProt P31994 43-217)
T3 construct: extracellular domain; also called hFcγR2B; CD32B
T3 sequence (looked up): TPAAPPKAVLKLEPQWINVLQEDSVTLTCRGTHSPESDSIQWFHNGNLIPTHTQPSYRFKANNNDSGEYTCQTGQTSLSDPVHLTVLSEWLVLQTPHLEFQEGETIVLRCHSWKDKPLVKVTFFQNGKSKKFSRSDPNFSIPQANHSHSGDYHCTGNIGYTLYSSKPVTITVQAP

B1: humanised 2.8.6 hIgG1 D265A (antibody)
heavy: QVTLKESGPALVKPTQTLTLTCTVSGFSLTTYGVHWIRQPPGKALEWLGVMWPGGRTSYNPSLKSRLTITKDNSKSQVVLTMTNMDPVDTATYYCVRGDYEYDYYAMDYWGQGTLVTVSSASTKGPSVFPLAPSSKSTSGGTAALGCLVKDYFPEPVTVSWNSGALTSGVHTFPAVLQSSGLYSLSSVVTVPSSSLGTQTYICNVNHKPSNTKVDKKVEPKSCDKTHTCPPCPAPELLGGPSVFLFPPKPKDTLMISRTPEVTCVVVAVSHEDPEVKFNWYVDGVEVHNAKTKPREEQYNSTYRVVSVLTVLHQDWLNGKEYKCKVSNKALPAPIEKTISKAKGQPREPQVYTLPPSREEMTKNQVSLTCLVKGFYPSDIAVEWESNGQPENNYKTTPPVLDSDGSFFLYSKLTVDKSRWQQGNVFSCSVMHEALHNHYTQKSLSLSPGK
light: EIVLTQSPATLSLSPGERATLSCRASSSVSYMHWYQQKPGQAPRPLIYATSNRATGIPARFSGSGSGTDYTLTISSLEPEDFAVYYCHQWSSNPYTFGQGTKLEIKRTVAAPSVFIFPPSDEQLKSGTASVVCLLNNFYPREAKVQWKVDNALQSGNSQESVTEQDSKDSTYSLSSTLTLSKADYEKHKVYACEVTHQGLSSPVTKSFNRGEC
notes: Fc variant with the variable domains of humanised 2.8.6; copies: 2 + 2
B2: humanised 2.8.6 hIgG4 P238D (antibody)
heavy: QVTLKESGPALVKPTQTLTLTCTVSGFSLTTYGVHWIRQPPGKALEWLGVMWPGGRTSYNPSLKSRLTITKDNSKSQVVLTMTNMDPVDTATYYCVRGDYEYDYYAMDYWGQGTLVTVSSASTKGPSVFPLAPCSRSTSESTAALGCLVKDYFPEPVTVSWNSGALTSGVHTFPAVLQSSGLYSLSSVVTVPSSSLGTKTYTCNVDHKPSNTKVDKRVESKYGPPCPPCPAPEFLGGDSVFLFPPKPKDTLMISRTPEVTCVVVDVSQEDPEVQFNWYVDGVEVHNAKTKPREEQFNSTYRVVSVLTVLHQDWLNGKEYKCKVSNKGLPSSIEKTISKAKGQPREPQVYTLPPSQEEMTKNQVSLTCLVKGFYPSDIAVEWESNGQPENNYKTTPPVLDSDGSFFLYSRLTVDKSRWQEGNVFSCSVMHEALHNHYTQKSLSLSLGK
VL: EIVLTQSPATLSLSPGERATLSCRASSSVSYMHWYQQKPGQAPRPLIYATSNRATGIPARFSGSGSGTDYTLTISSLEPEDFAVYYCHQWSSNPYTFGQGTKLEIKRTVAAPSVFIFPPSDEQLKSGTASVVCLLNNFYPREAKVQWKVDNALQSGNSQESVTEQDSKDSTYSLSSTLTLSKADYEKHKVYACEVTHQGLSSPVTKSFNRGEC
notes: Fc variant with the variable domains of humanised 2.8.6; not shown: human IgG4 heavy chain constant region; copies: 2 + 2
B3: humanised 2.8.6 hIgG1 D265A A330R (antibody)
heavy: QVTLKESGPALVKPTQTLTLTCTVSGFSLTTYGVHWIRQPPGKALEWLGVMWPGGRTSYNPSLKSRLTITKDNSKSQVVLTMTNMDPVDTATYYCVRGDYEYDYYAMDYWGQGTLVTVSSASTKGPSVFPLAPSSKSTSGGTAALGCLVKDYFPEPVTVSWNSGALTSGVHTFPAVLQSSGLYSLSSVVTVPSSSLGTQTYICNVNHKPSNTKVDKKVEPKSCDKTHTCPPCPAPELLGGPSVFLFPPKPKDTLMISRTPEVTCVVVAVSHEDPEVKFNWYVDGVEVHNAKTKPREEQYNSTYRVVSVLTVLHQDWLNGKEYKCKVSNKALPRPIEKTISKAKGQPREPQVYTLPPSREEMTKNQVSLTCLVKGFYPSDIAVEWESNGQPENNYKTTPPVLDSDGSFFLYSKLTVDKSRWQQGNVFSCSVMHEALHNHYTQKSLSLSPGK
light: EIVLTQSPATLSLSPGERATLSCRASSSVSYMHWYQQKPGQAPRPLIYATSNRATGIPARFSGSGSGTDYTLTISSLEPEDFAVYYCHQWSSNPYTFGQGTKLEIKRTVAAPSVFIFPPSDEQLKSGTASVVCLLNNFYPREAKVQWKVDNALQSGNSQESVTEQDSKDSTYSLSSTLTLSKADYEKHKVYACEVTHQGLSSPVTKSFNRGEC
notes: as for B1
B4: humanised 2.8.6 hIgG1 P238D G237D P271G A330R (V9) (antibody)
heavy: QVTLKESGPALVKPTQTLTLTCTVSGFSLTTYGVHWIRQPPGKALEWLGVMWPGGRTSYNPSLKSRLTITKDNSKSQVVLTMTNMDPVDTATYYCVRGDYEYDYYAMDYWGQGTLVTVSSASTKGPSVFPLAPSSKSTSGGTAALGCLVKDYFPEPVTVSWNSGALTSGVHTFPAVLQSSGLYSLSSVVTVPSSSLGTQTYICNVNHKPSNTKVDKKVEPKSCDKTHTCPPCPAPELLGDDSVFLFPPKPKDTLMISRTPEVTCVVVDVSHEDGEVKFNWYVDGVEVHNAKTKPREEQYNSTYRVVSVLTVLHQDWLNGKEYKCKVSNKALPRPIEKTISKAKGQPREPQVYTLPPSREEMTKNQVSLTCLVKGFYPSDIAVEWESNGQPENNYKTTPPVLDSDGSFFLYSKLTVDKSRWQQGNVFSCSVMHEALHNHYTQKSLSLSPGK
light: EIVLTQSPATLSLSPGERATLSCRASSSVSYMHWYQQKPGQAPRPLIYATSNRATGIPARFSGSGSGTDYTLTISSLEPEDFAVYYCHQWSSNPYTFGQGTKLEIKRTVAAPSVFIFPPSDEQLKSGTASVVCLLNNFYPREAKVQWKVDNALQSGNSQESVTEQDSKDSTYSLSSTLTLSKADYEKHKVYACEVTHQGLSSPVTKSFNRGEC
notes: Fc variant with the variable domains of humanised 2.8.6; also called 2.8.6 hIgG1 V9; hIgG1 V9 isotype; copies: 2 + 2
B5: humanised 2.8.6 hIgG1 D265A G236D S267E (antibody)
heavy: QVTLKESGPALVKPTQTLTLTCTVSGFSLTTYGVHWIRQPPGKALEWLGVMWPGGRTSYNPSLKSRLTITKDNSKSQVVLTMTNMDPVDTATYYCVRGDYEYDYYAMDYWGQGTLVTVSSASTKGPSVFPLAPSSKSTSGGTAALGCLVKDYFPEPVTVSWNSGALTSGVHTFPAVLQSSGLYSLSSVVTVPSSSLGTQTYICNVNHKPSNTKVDKKVEPKSCDKTHTCPPCPAPELLDGPSVFLFPPKPKDTLMISRTPEVTCVVVAVEHEDPEVKFNWYVDGVEVHNAKTKPREEQYNSTYRVVSVLTVLHQDWLNGKEYKCKVSNKALPAPIEKTISKAKGQPREPQVYTLPPSREEMTKNQVSLTCLVKGFYPSDIAVEWESNGQPENNYKTTPPVLDSDGSFFLYSKLTVDKSRWQQGNVFSCSVMHEALHNHYTQKSLSLSPGK
light: EIVLTQSPATLSLSPGERATLSCRASSSVSYMHWYQQKPGQAPRPLIYATSNRATGIPARFSGSGSGTDYTLTISSLEPEDFAVYYCHQWSSNPYTFGQGTKLEIKRTVAAPSVFIFPPSDEQLKSGTASVVCLLNNFYPREAKVQWKVDNALQSGNSQESVTEQDSKDSTYSLSSTLTLSKADYEKHKVYACEVTHQGLSSPVTKSFNRGEC
notes: as for B1
B6: humanised 2.8.6 hIgG1 D265A S267E (antibody)
heavy: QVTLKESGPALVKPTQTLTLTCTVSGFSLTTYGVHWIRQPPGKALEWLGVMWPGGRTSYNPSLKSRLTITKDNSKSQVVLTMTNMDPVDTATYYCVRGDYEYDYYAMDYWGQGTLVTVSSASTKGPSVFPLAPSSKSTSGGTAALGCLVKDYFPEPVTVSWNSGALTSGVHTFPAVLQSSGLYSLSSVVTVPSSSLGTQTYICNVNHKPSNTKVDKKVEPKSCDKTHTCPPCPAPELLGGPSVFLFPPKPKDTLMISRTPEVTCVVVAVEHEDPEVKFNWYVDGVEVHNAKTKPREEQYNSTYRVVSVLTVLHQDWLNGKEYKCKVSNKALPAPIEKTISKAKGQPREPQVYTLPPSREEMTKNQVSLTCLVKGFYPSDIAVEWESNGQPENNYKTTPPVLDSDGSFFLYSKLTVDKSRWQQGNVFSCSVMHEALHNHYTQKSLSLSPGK
light: EIVLTQSPATLSLSPGERATLSCRASSSVSYMHWYQQKPGQAPRPLIYATSNRATGIPARFSGSGSGTDYTLTISSLEPEDFAVYYCHQWSSNPYTFGQGTKLEIKRTVAAPSVFIFPPSDEQLKSGTASVVCLLNNFYPREAKVQWKVDNALQSGNSQESVTEQDSKDSTYSLSSTLTLSKADYEKHKVYACEVTHQGLSSPVTKSFNRGEC
notes: as for B1
B7: humanised 2.8.6 hIgG1 D265A G236D (antibody)
heavy: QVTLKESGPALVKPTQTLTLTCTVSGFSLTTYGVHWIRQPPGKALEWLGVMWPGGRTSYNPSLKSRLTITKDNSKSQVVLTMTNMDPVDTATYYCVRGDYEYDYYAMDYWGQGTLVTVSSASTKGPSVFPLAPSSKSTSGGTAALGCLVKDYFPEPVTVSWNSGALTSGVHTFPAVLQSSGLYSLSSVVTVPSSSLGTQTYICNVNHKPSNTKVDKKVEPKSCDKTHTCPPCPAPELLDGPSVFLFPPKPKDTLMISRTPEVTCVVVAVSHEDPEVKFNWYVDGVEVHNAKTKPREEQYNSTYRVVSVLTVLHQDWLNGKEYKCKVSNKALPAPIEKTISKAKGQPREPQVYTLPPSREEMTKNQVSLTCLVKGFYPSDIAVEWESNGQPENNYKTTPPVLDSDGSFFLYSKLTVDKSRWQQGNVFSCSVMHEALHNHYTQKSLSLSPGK
light: EIVLTQSPATLSLSPGERATLSCRASSSVSYMHWYQQKPGQAPRPLIYATSNRATGIPARFSGSGSGTDYTLTISSLEPEDFAVYYCHQWSSNPYTFGQGTKLEIKRTVAAPSVFIFPPSDEQLKSGTASVVCLLNNFYPREAKVQWKVDNALQSGNSQESVTEQDSKDSTYSLSSTLTLSKADYEKHKVYACEVTHQGLSSPVTKSFNRGEC
notes: as for B1

What was measured:
human FcRn = molecular target: T4, human FcRn (human, UniProt P55899 24-297; P61769 21-119, limits assumed, biotinylated); assay: SPR, pH6.0
T4 construct: bought; also called FcRn pH6
T4 sequence (P55899 24-297 limits assumed, chain 1 of 2): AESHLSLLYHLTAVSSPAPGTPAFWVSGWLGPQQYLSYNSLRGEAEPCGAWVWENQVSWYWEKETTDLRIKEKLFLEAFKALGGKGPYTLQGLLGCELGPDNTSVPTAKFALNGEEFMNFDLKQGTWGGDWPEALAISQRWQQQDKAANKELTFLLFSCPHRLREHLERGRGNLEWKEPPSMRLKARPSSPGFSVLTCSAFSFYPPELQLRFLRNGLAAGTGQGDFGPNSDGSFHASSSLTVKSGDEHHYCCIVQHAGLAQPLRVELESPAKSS
T4 sequence (P61769 21-119 limits assumed, chain 2 of 2): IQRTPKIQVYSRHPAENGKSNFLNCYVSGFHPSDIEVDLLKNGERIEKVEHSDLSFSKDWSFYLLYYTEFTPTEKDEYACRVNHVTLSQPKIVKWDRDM
Method: (§1) For the high affinity FcR interactions (FcγR1A, and also FcRn assessed at pH6.0) the binding was assessed in a kinetic analysis with antibody as analyte. […] Reference flow cell 1 was left empty in all channels. Purified antibody was then injected at a single concentration and on/off rates calculated by curve fitting on BiaEvaluation software. […] IgG Fc has two binding sites for FcRn so this assessment performed with FcRn immobilised at high density provides an avidity estimate for the interaction rather than a true KD.

human FcγR2A 131R [1] = molecular target: T1, human FcγR2A 131R; assay: SPR 37C, steady state;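 further: fc variants captured on chip-bound human BTLA ectodomain, recombinant FcγR ectodomains injected as analyte at varied concentrations, double-referenced equilibrium binding fitted to Langmuir model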
Method: (§2) For the low affinity FcγRs (FcγR2A, FcγR2B, FcγR3A and FcγR3B) the interactions were assessed by surface plasmon resonance with the recombinantly expressed FcRs (extracellular domains only) as analyte. Briefly, recombinant human BTLA extracellular domain (BTLA^K31-R151) was covalently immobilised to both flow cells of all channels of a CMS Series S sensor chip using the GE Healthcare Amine coupling kit. The 2.8.6 Fc variant to be assessed was then captured (approx. 500-1000 response units) in flow cell 2 of each channel. Steady state affinity analysis was then performed by injecting varying concentrations of FcR in multiple cycles and measuring equilibrium binding. Double referencing was used (subtracting the signal in the reference Fc1 and also subtracting the signal from a blank zero concentration injection). KDs were calculated from the Langmuir curves (plotting equilibrium binding against analyte concentration to determine the concentration required for half maximal binding).

human FcγR2A 131H [2] = molecular target: T2, human FcγR2A 131H; assay: SPR 37C, steady state;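 further: fc variants captured on chip-bound human BTLA ectodomain, recombinant FcγR ectodomains injected as analyte at varied concentrations, double-referenced equilibrium binding fitted to Langmuir model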
Method: as §2

human FcγR2B [3] = molecular target: T3, human FcγR2B; assay: SPR 37C, steady state;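 further: fc variants captured on chip-bound human BTLA ectodomain, recombinant FcγR ectodomains injected as analyte at varied concentrations, double-referenced equilibrium binding fitted to Langmuir model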
Method: as §2

human FcγR3A 158V [4] = molecular target: T5, human FcγR3A 158V (human, UniProt P08637 17-208); assay: SPR 37C, steady state;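 further: fc variants captured on chip-bound human BTLA ectodomain, recombinant FcγR ectodomains injected as analyte at varied concentrations, double-referenced equilibrium binding fitted to Langmuir model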
T5 construct: extracellular domain
T5 sequence (P08637 17-208 F176V): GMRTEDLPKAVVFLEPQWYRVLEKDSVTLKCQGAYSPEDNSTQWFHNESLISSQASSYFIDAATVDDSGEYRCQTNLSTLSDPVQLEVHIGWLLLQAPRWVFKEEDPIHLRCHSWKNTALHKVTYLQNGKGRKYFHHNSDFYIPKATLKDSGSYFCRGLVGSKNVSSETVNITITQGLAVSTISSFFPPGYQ
Method: as §2

human FcγR1A [5] = molecular target: T6, human FcγR1A (human, UniProt P12314 16-288, biotinylated); assay: SPR 37C, kinetic; hIgG1 D265A Fc variant
T6 construct: bought; also called CD64A
T6 sequence (P12314 16-288): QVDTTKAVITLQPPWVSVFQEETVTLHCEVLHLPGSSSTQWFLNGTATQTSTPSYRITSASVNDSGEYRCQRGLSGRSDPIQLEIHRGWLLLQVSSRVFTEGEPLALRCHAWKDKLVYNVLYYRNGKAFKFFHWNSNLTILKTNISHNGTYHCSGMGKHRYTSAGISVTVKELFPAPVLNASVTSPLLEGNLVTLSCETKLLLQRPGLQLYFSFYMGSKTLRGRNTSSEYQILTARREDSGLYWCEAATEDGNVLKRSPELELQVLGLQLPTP
Method: (§3) For the high affinity FcR interactions (FcγR1A, and also FcRn assessed at pH6.0) the binding was assessed in a kinetic analysis with antibody as analyte. […] Reference flow cell 1 was left empty in all channels. Purified antibody was then injected at a single concentration and on/off rates calculated by curve fitting on BiaEvaluation software.

human FcγR3A 158F [6] = molecular target: T7, human FcγR3A 158F (human, UniProt P08637 17-208); assay: SPR 37C, steady state; hIgG1 D265A Fc variant
T7 construct: extracellular domain
T7 sequence (P08637 17-208): as the sequence (P08637 17-208 F176V) above, with V160F counted along it
Method: as §2

human FcγR3B [7] = molecular target: T8, human FcγR3B (human, UniProt O75015 17-200, limits assumed); assay: SPR 37C, steady state; hIgG1 D265A Fc variant
T8 construct: extracellular domain; also called CD16B
T8 sequence (O75015 17-200 limits assumed): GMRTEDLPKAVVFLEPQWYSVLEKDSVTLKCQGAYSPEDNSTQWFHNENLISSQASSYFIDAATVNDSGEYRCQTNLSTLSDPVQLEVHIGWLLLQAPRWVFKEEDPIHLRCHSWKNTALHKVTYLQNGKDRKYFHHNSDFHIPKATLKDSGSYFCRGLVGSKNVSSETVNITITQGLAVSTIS
Method: as §2

human FcγR2A 131H [8] = molecular target: T2, human FcγR2A 131H; assay: SPR 37C, steady state; hIgG4 P238D Fc variant
Method: (§4) For the low affinity FcγRs (FcγR2A, FcγR2B, FcγR3A and FcγR3B) the interactions were assessed by surface plasmon resonance with the recombinantly expressed FcRs (extracellular domains only) as analyte. […] The 2.8.6 Fc variant to be assessed was then captured (approx. 500-1000 response units) in flow cell 2 of each channel. Steady state affinity analysis was then performed by injecting varying concentrations of FcR in multiple cycles and measuring equilibrium binding. Double referencing was used (subtracting the signal in the reference Fc1 and also subtracting the signal from a blank zero concentration injection). KDs were calculated from the Langmuir curves (plotting equilibrium binding against analyte concentration to determine the concentration required for half maximal binding).

human FcγR3A 158F [9] = molecular target: T7, human FcγR3A 158F; assay: SPR 37C, steady state
Method: as §2

human FcγR3B [10] = molecular target: T8, human FcγR3B; assay: SPR 37C, steady state; hIgG1 D265A A330R Fc variant
Method: as §2

human FcγR2B [11] = molecular target: T3, human FcγR2B; assay: SPR (Example 23)
Method: as §2

human FcγR1A [12] = molecular target: T6, human FcγR1A; assay: SPR 37C, kinetic; hIgG1 P238D G237D P271G A330R (V9) Fc variant
Method: as §1

human FcγR2A 131R [13] = molecular target: T1, human FcγR2A 131R; assay: SPR 37C, steady state; hIgG1 P238D G237D P271G A330R (V9) Fc variant
Method: as §2

human FcγR2A 131H [14] = molecular target: T2, human FcγR2A 131H; assay: as above
Method: as §2

human FcγR2B [15] = molecular target: T3, human FcγR2B; assay: as above
Method: as §2

human FcγR3A 158F [16] = molecular target: T7, human FcγR3A 158F; assay: as above
Method: as §2

human FcγR3A 158V [17] = molecular target: T5, human FcγR3A 158V; assay: as above
Method: as §2

human FcγR3B [18] = molecular target: T8, human FcγR3B; assay: as above
Method: as §2

human FcγR1A [19] = molecular target: T6, human FcγR1A; assay: SPR 37C, kinetic
Method: as §3

human FcγR3B [20] = molecular target: T8, human FcγR3B; assay: SPR 37C, steady state
Method: as §2

human FcγR3A 158V [21] = molecular target: T5, human FcγR3A 158V; assay: SPR 37C, steady state; hIgG1 D265A G236D S267E Fc variant
Method: as §4

human FcγR1A [22] = molecular target: T6, human FcγR1A; assay: SPR 37C, kinetic; hIgG1 D265A S267E Fc variant
Method: as §3

human FcγR2B [23] = molecular target: T3, human FcγR2B; assay: SPR 37C, steady state; hIgG1 D265A G236D Fc variant
Method: as §2

Binder | avidity (FcRn pH6) (human FcRn) [nM] | Kd (human FcγR2A 131R [1]) [µM] | Kd (human FcγR2A 131H [2]) [µM] | Kd (human FcγR2B [3]) [µM] | binding result (human FcγR3A 158V [4]) | binding result (human FcγR3A 158F [9]) | binding result (human FcγR3B [20]) | also measured
B1 | 12 | 48.3 | 40.1 | 193 | no binding | – | – | Kd (human FcγR1A [5]): 0.497 µM; Kd (human FcγR3A 158F [6]): 1490 µM; Kd (human FcγR3B [7]): 5200 µM
B2 | – | 47.9 | – | 17.5 | – | – | – | Kd (human FcγR2A 131H [8]): 312 µM
B3 | – | 67 | 39.4 | 347 | no binding | no binding | – | Kd (human FcγR3B [10]): 9100 µM
B4 | 1.98 | – | – | – | – | – | – | fold higher affinity than the P238D isotype (human FcγR2B [11]): ~30 fold; Kd (human FcγR1A [12]): 0.697 µM; Kd (human FcγR2A 131R [13]): 1.84 µM; Kd (human FcγR2A 131H [14]): 26.2 µM; Kd (human FcγR2B [15]): 0.173 µM; Kd (human FcγR3A 158F [16]): 216 µM; Kd (human FcγR3A 158V [17]): 321 µM; Kd (human FcγR3B [18]): 6090 µM
B5 | 18.7 | 61.8 | – | 113 | – | no binding | no binding | binding result (human FcγR1A [19]): no binding; binding result (human FcγR2A 131H [2]): no binding; Kd (human FcγR3A 158V [21]): 1650 µM
B6 | 11.9 | 26.7 | 173 | 157 | no binding | no binding | no binding | Kd (human FcγR1A [22]): 0.415 µM
B7 | 14 | 91.4 | – | – | no binding | no binding | no binding | binding result (human FcγR1A [19]): no binding; binding result (human FcγR2A 131H [2]): no binding; Kd (human FcγR2B [23]): 748 µM
